Key:
[1] = target: T1, cMet-Fc fusion protein (extracellular domain of the cMet receptor expressed as an Fc-fusion protein) (human, UniProt P08581 25-932); assay: phage ELISA, cMet-Fc vs TRAIL-Fc
T1 construct: extracellular domain; also called soluble cMet-Fc-fusion protein; soluble cMet receptor; not shown: Fc part
Method in brief: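 Plates coated overnight at 4 C with 0.5 μg/mL cMet-Fc, or TRAIL-Fc as background, were blocked with 3% BSA in PBST. Peptide-displaying phage were bound 2 h at room temperature. Bound phage were detected with HRP-conjugated anti-M13 antibody.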

[2] = target: T2, human cMet expressed on 3T3 cells (human, UniProt P08581 25-1390); assay: whole cell phage ELISA, 3T3 human cMet vs 3T3
T2 construct: whole, on cells; cells fixed with glutaraldehyde; also called cell surface-expressed human cMet; 3T3 cells that over-express human cMet
Method in brief: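 3T3 cells over-expressing human cMet, compared against parental 3T3, seeded at 10⁵ per well and fixed with 0.1% glutaraldehyde for 12 min at 37 C. Blocked peptide-displaying phage bound for 1 h at room temperature. After PBST washes, bound phage was detected with HRP-conjugated anti-M13 antibody.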

[3] = target: T1, cMet-Fc fusion protein (extracellular …); assay: phage ELISA on cMet-Fc, competitor HGF 100 ng/mL
Method in brief: (§1)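 Plates coated with 0.5 μg/mL cMet-Fc, with TRAIL-Fc as background, then blocked with 3% BSA. Bound phage detected with HRP anti-M13 antibody.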

[4] = target: T1, cMet-Fc fusion protein (extracellular …); assay: phage ELISA on cMet-Fc, competitor HGF 500 ng/mL
Method in brief: as §1

T1 sequence (P08581 25-932): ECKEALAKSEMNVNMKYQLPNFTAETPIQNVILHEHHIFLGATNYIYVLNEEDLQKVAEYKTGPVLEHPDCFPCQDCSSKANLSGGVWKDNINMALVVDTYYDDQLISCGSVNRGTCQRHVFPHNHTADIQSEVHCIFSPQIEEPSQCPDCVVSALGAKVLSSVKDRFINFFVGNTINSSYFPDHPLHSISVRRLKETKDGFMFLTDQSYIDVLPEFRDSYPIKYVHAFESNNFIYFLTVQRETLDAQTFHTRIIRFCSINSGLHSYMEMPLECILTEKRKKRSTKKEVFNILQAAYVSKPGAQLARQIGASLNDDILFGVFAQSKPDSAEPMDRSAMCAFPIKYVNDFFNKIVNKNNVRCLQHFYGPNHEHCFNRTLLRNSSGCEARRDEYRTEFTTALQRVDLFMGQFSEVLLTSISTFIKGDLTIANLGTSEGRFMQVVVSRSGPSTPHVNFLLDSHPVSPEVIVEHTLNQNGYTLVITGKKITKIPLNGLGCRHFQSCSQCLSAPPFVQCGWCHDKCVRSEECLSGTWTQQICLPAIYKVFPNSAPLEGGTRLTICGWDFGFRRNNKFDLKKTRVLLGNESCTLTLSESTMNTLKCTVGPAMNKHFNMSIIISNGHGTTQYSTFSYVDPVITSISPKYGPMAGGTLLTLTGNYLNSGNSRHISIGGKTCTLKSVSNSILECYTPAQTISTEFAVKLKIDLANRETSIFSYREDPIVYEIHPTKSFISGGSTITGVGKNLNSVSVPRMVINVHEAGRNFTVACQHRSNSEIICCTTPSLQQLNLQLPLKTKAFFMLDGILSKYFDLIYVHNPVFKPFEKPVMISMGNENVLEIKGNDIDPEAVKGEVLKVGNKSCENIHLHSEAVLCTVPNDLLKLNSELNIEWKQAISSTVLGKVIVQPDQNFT
T2 sequence (P08581 25-1390): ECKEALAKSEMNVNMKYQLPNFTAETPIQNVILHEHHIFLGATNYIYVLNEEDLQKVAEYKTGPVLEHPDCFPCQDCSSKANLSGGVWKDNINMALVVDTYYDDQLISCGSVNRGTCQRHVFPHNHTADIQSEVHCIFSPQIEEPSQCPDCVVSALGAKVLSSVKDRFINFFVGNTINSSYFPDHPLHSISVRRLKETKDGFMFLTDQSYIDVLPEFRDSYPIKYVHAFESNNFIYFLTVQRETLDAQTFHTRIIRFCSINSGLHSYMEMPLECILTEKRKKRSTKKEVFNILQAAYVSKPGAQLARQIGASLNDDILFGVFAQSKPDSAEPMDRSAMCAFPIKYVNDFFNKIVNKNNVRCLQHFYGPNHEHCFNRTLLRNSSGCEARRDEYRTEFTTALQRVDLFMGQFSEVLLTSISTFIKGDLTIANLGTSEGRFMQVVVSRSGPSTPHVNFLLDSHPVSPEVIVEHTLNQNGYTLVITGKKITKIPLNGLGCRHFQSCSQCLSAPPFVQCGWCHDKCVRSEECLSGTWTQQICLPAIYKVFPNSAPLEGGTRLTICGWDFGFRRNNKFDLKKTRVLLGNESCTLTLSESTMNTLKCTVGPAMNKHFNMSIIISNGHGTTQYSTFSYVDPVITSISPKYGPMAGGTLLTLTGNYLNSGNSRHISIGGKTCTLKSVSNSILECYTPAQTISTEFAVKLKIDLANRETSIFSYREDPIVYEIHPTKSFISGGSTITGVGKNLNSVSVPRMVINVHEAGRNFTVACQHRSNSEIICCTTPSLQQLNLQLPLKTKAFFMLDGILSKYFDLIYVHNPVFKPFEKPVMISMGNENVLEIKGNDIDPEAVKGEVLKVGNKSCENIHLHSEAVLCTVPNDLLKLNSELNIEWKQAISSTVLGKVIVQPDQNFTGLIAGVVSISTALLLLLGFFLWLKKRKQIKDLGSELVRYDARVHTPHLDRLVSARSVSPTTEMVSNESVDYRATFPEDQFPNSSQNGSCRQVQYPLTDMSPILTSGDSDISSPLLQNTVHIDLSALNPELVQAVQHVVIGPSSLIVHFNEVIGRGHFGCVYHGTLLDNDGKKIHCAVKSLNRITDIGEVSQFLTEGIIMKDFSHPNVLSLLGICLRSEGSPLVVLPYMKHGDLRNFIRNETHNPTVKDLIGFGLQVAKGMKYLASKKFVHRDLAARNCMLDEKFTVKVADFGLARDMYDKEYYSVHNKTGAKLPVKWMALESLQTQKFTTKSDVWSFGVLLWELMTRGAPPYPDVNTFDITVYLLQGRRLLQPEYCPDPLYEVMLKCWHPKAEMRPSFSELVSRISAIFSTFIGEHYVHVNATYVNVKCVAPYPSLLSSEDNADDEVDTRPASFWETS

Binder | Protein ELISA (fold over background) [1] [fold] | WC ELISA (fold over background) [2] [fold] | % of binding in the absence of HGF [3] [%] | % of binding in the absence of HGF [4] [%]
GDNRFCSWVYNVDDWWCVDNDP [332-H09 peptide-displaying phage (SEQ ID NO: 398)] | 6.2 | 1.3 | 50 | 43
GDHRKCEISAKTHEVTCYDNDP [545-F04 peptide-displaying phage (SEQ ID NO: 402)] | 5.2 | 1.17 | 143 | 114
AQRWSSPGMSQSFVLEWKWNDN [118-A08 peptide-displaying phage (SEQ ID NO: 453)] | 11.3 | 1.3 | 85 | 74
AQDLKPWTAGWEPPWLWTDRGP [104-C09 peptide-displaying phage (SEQ ID NO: 461)] | 5 | 1.3 | 64 | 50
AGLYLCDLSIMYCFFQGT [489-A04 peptide-displaying phage (SEQ ID NO: 015)] | 4.3 | 1.33 | 30 | 13
AGDGWCMAWPEICEWLGT [434-E12 peptide-displaying phage (SEQ ID NO: 014)] | 4.8 | 1.33 | 117 | 41
GDPWWCFEKDSFIPFACWHHDP [330-G02 peptide-displaying phage (SEQ ID NO: 396)] | 7.4 | 1.3 | 37 | 31
GDHLTCEFRDDGWKEHCWWSDP [552-F06 peptide-displaying phage (SEQ ID NO: 403)] | 11.1 | 1.23 | 82 | 32
AQYDTWVFQFIHEVPGELVAMQ (also called linear isolate 94-E08) [94-E08 peptide-displaying phage (SEQ ID NO: 454)] | 8.9 | 1.23 | 102 | 74
GDYSECFFEPDSFEVKCYDRDP [545-H12 peptide-displaying phage (SEQ ID NO: 399)] | 11.3 | 1.3 | 74 | 60
AQVGTAEAIMFSDVEDTGVHKF [103-G08 peptide-displaying phage (SEQ ID NO: 459)] | 5.7 | 1.33 | 140 | 95
AQIQGIQKTEQGEFYWFNWFPA [528-F05 peptide-displaying phage (SEQ ID NO: 450)] | 4.3 | 1.1 | 84 | 81
AQREVEEPYWYLDFLSSWRMHE [524-E09 peptide-displaying phage (SEQ ID NO: 451)] | 8.2 | 1.33 | 100 | 93
AQFPLEFDVPNFSYHWLVSFNP [118-C07 peptide-displaying phage (SEQ ID NO: 460)] | 5.6 | 1.27 | 100 | 84
GDASWCDENSPAAWFYCELWDP [551-D02 peptide-displaying phage (SEQ ID NO: 394)] | 13.4 | 1.37 | 91 | 70
AQQASRFTFTDGDSYWWFEDF [525-A07 peptide-displaying phage (SEQ ID NO: 449)] | 7 | 1.17 | 93 | 88
GDYRMCQISDMWGNYECSSDDP [548-G05 peptide-displaying phage (SEQ ID NO: 400)] | 6.1 | 1.3 | 110 | 47
AQNAVVPPPMLWSIYWDYGREG [94-H04 peptide-displaying phage (SEQ ID NO: 457)] | 7 | 1.37 | 150 | 101
GDYYQCQFSKDMYSERCWPYDP [316-F08 peptide-displaying phage (SEQ ID NO: 397)] | 7 | 1.3 | 72 | 38
AQHQYGQMMVLHIQYDMGEFIP [117-F08 peptide-displaying phage (SEQ ID NO: 462)] | 4.5 | 1.27 | 102 | 270
AQVGSPMLPSWFSFEANWSS [95-A11 peptide-displaying phage (SEQ ID NO: 456)] | 7 | 1.3 | 109 | 108
AQPYYELQDADMLLVVALLSTG [94-F07 peptide-displaying phage (SEQ ID NO: 458)] | 6.1 | 1.2 | 106 | 104
GDASMCYDGLALRWDQCWPHDP [531-E11 peptide-displaying phage (SEQ ID NO: 404)] | 3.4 | 1.3 | 61 | 33
AQMYQTPDGVIGKFVDWMFN [119-F06 peptide-displaying phage (SEQ ID NO: 455)] | 8 | 1.33 | 4 | 27
GDLLGCGYQEKGGEYKCRFNDP [334-F05 peptide-displaying phage (SEQ ID NO: 395)] | 13.5 | 1.4 | 58 | 29
AQRPEAHYKLAMSYPIIPRTKT [96-H12 peptide-displaying phage (SEQ ID NO: 452)] | 35.3 | 1.37 | 88 | 64
GSYYDCREFQCNKPAP [465-A06 peptide-displaying phage (SEQ ID NO: 002)] | 4.4 | 1.33 | 56 | 32
GDPDECQLNRETFEVWCPWHDP [547-C09 peptide-displaying phage (SEQ ID NO: 401)] | 4.3 | 1.23 | 50 | 32
